This data set addresses T1, EcoNrdR (Escherichia coli) (UniProt P0A8D0).
T1 sequence: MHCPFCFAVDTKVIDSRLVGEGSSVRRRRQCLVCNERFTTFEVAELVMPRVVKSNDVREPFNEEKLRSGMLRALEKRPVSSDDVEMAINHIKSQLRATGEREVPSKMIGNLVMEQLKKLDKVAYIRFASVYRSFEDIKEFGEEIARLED
The data set can be described thus: MST. The conditions noted are these: temperature not stated. Lmo: 25 mM Bis-Tris propane pH 6.5, 100 mM KCl, 5 mM MgCl2, 5% glycerol, 1 mM DTT, 0.05% Tween 20, one nucleotide 1 mM or two at 0.

As for “ACTATTTGCTATATATTGTGTGGTTGAATCTTTTTTCAACTACATCTAGTATCTCTG (double strand) [Eco nrdHIEF wild type]”, the Kd worked out at 130 nM.
